This is an account of results in US20240307488A1, “ANNEXIN TO INHIBIT BACTERIA” (priority 2023, published 2024).

The subject of one test is E. coli strain BL21(DE3). Put plainly: dark field light microscopy of antibiotic-driven bacterial filament formation and filament length measurement. In kind it is cell-based. An excerpt: Use of dark field light microscopy to monitor antibiotic-driven bacterial filament formation.
In bright field light microscopy, the filaments formed by bacteria in the presence of beta-lactam antibiotics are difficult to distinguish from “floaters” in the eyes of the microscopist. […] The light micrographs provided herein were all obtained by darkfield light microscopy. […] Therefore, transmission electron microscopy was also used in some cases for visualization of cell ultrastructure.
Darkfield light microscopy of bacterial cultures was performed with a Nikon Labophot microscope (Nikon Instruments, Melville, New York) with a dark field condenser (dry) and an e plan40×/0.65 Nikon objective.
of the inducer IPTG (Isopropyl β-d-1-thiogalactopyranoside). However, protein expression from this plasmid can have significant baseline expression without the inducer. […] Accordingly, all of the imaging and experiments described in this report were performed without adding the inducer, which avoided these problems.
Five ml precultures in LB medium with 200 μg/ml ampicillin were seeded with colonies from LB-ampicillin agar plates and incubated on a rotator overnight at 34 degrees C. […] Slides were rested for 2 to 5 minutes to allow the cells to settle before observation. Nonetheless, the cells were not tightly adherent to the slides and occasionally some cells moved slightly during imaging resulting in a double image. Cultures were checked and micrographs taken at 5 to 20 min intervals for up to 4 hours. Occasionally during this period, the culture tubes were briefly inserted into a Genesys 20 spectrophotometer (Thermospectronic, Rochester, NY) and the absorbance at 600 nm was recorded to measure culture density. The culture tubes have a circular cross section with an inside diameter of 1.3 cm, so the absorbances recorded were approximately 30% higher than would have been measured in a square cuvette with a one cm pathlength.
For preparation of the micrographs in FIGS. 1 through 3 comparing the morphology of the different transformed strains, each test culture (5 ml) was inoculated at the same time with 50 ul of the saturated overnight preculture. For display in the Figures, photographs taken after approximately the same period of growth of each of the parallel cultures were obtained when 20 μl samples provided a microscope image containing a broad sampling of the cell morphologies seen without overcrowding.
The lengths of the bacterial filaments were measured using the Image J program (NIH) with the dark field light micrographs. […] The longest dimension of each cell or filament was taken to represent the “length” for the analysis. Forty to 90 filaments were measured from each of the sub-images in FIGS. 1 and 2.

Test [1] has as its system bovine chromaffin granule (secretory vesicle) membrane. The note with it: from Nelson and Creutz [17], Table 4; cited from earlier work.
The next test relates to E. coli BL21(DE3) cells. The test is described as follows: electron microscopy of cells expressing wild type or mutant annexins A4. It is filed as cell-based. Particulars: 200 μg/ml ampicillin and 4 μg/ml piperacillin; FIG. 4. An excerpt:
E. coli samples selected for ultrastructural analysis were processed for electron microscopy using technical support and instrumentation in the Advanced Microscopy Facility at the University of Virginia School of Medicine. The following reagents for electron microscopy were obtained from Electron Microscopy Sciences (Hatfield, PA): sodium cacodylate, propylene oxide, EPON, uranyl acetate, and lead citrate.
One ml samples of cell cultures were pelleted in a microcentrifuge and resuspended in 2.5% glutaraldehyde in 10 mM phosphate buffer (pH7.4) and held overnight at 4 degrees C. The cells were then washed in 0.1 M sodium cacodylate, 2 times, 10 minutes per wash. Then the samples were completely immersed in 1% osmium tetroxide (OsO4) in 0.1 M sodium cacodylate and incubated at room temperature for 1 hour. Following this incubation, the samples were rinsed in 0.1 M sodium cacodylate, 2 times, 10 minutes per wash. Next samples were dehydrated sequentially in 50%, 70%, 95%, 100% ethanol for at least 10 minutes each. Samples were then rinsed in 1:1 ethanol:propylene oxide and incubated for 10 min in the same mixture, then for 10 min in 100% propylene oxide. Following removal of the final propylene oxide, samples were incubated in a 1:1 propylene oxide:EPON mixture overnight, followed with 1:2 propylene oxide:EPON and 1:4 propylene oxide:EPON, 4 hours each. […]

Where [2] appears, read: E. coli expressing construct, grown in ampicillin (200 μg/ml), FIG. 1.
Where [3] appears, read: ampicillin (200 μg/ml) plus piperacillin (4 μg/ml), FIG. 2.

`CC1=C(C(=O)O)N2C(=O)[C@@H](NC(=O)[C@H](N)c3ccccc3)[C@H]2SC1` [cephalexin, reference compound]: the “propensity to promote the formation of long, stable filaments” value with E. coli strain BL21(DE3) (compared with ampicillin and piperacillin) is reported as “greatest propensity to promote the formation of long, stable filaments”.

B1: bovine annexin A4 (protein, UniProt P13214 2-319, looked up)
Annexin A4: AAKGGTVKAASGFNAAEDAQTLRKAMKGLGTDEDAIINVLAYRSTAQRQEIRTAYKTTIGRDLMDDLKSELSGNFEQVILGMMTPTVLYDVQELRKAMKGAGTDEGCLIEILASRTPEEIRRINQTYQLQYGRSLEDDIRSDTSFMFQRVLVSLSAGGRDESNYLDDALMRQDAQDLYEAGEKKWGTDEVKFLTVLCSRNRNHLLHVFDEYKRIAQKDIEQSIKSETSGSFEDALLAIVKCMRNKSAYFAERLYKSMKGLGTDDDTLIRVMVSRAEIDMLDIRANFKRLYGKSLYSFIKGDTSGDYRKVLLILCGGDD
As for B1, the “concentration of calcium leading to half-maximal binding to a biological membrane” value in test [1] was 5.0×10^−6 M. Also, in the test on E. coli strain BL21(DE3) (setting [2]), the “AVG μm: average length of the measured filaments” value is reported as 5.279 μm and the “MAX μm: length of the longest filament in the micrograph” value stood at 15.03 μm. Besides, in the test on E. coli strain BL21(DE3) (ampicillin (200 μg/ml)), the “optical density (A600) of the cultures with or without the annexin” value is “similar” and the “promotion of cytokinesis (grouping of constructs)” value is on record as “promoted cytokinesis”. In the test with E. coli strain BL21(DE3) (ampicillin (200 μg/ml) plus cephalexin (25 μg/ml)), the “filament formation” value is “long filamentous cells were formed”. In addition, in the test on E. coli strain BL21(DE3) (ampicillin (200 μg/ml) plus piperacillin (4 μg/ml)), the “promotion of cytokinesis (grouping of constructs)” value is on record as “promoted cytokinesis”. In the test on E. coli strain BL21(DE3) (setting [3]), the “AVG μm: average length of the measured filaments” value was determined as 5.052 μm and the “MAX μm: length of the longest filament in the micrograph” value stood at 9.472 μm. Besides, the “stability of the filaments after tenfold dilution of cephalexin” value with E. coli strain BL21(DE3) (cephalexin reduced from 25 to 2.5 μg/ml after 3 hours 20 minutes, observed for two hours) was “completely stable”. Also, in the test with E. coli BL21(DE3) cells, the “relative abundance of short cells and filamentous forms in electron micrographs” value is “number of short cells exceeds the number of extended filamentous forms”.
